Patent US20150374794A1 (Novo Nordisk, published 2015)
Numbered stars: 1 amine (or outer) side, 2 acyl side, 3 side chain; on linkers, the order of the positions; unused ones are H or OH. Square brackets hold non-standard residues; d marks the D form. Side chains are listed from the residue outwards. Ends that are not written are not given here. * marks the point of attachment. C18 diacid = O=C(O)CCCCCCCCCCCCCCCCC(=O)*; γGlu = O=C(O)[C@H](CCC(=O)[*:2])N[*:1]; Ac4c = NC1(C(=O)O)CCC1; AEEA = NCCOCCOCC(=O)O; Aib = CC(C)(N)C(=O)O

Key:
human GLP-1 receptor [1] = molecular target: T1, human GLP-1 receptor (human, UniProt P43220 24-463); experiment: cell-based or functional assay
human glucagon receptor [2] = molecular target: T2, human glucagon receptor (human, UniProt P47871 26-477); experiment: cell-based or functional assay
human glucagon receptor [3] = molecular target: T2, human glucagon receptor; experiment: displacement of 125I-glucagon, membranes with human glucagon receptor, SPA
Procedure: (§1) The receptor binding of each compound to the human glucagon receptor was measured in a displacement binding assay. […] Each derivative was added in a series of concentrations to isolated membranes containing the human glucagon receptor and displacement of the labelled ligand is monitored. The receptor binding was reported as the concentration at which half of the labelled ligand is displaced from the receptor, the IC₅₀ value.

human GLP-1 receptor [4] = molecular target: T1, human GLP-1 receptor; experiment: displacement of 125I-GLP-1(7-36)NH2, membranes with human GLP-1R, SPA
Procedure: as §1, with “human GLP-1” for “human glucagon”, “ligand was” for “ligand is”

T2 sequence (P47871 26-477): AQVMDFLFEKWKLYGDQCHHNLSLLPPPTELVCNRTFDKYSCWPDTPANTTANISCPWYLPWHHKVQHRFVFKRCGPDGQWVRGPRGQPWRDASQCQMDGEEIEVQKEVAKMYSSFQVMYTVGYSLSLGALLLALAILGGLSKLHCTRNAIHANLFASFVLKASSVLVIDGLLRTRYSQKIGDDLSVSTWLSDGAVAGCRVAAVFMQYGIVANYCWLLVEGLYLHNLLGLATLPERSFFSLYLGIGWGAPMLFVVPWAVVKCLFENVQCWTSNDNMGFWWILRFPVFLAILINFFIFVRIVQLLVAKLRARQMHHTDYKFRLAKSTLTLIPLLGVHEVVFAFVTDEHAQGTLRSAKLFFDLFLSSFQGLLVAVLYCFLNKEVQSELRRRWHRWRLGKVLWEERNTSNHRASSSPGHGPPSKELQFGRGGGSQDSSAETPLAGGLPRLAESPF

Binder | EC50 GLP-1R, CRE luciferase reporter gene assay in BHK cells (human GLP-1 receptor [1]) | EC50 GlucR, CRE luciferase reporter gene assay in BHK cells (human glucagon receptor [2]) | IC50 (human glucagon receptor [3]) | IC50 (human GLP-1 receptor [4])
H[Aib]QGTFTSDLSKYLDK([γGlu-γGlu-AEEA-γGlu-γGlu-C18 diacid])RRAQEFVQWLLNT-NH2 (N-terminus assumed; SMILES CC(C)C[C@H](NC(=O)[C@H](Cc1ccc(O)cc1)NC(=O)[C@H](CCCCN)NC(=O)[C@H](CO)NC(=O)[C@H](CC(C)C)NC(=O)[C@H](CC(=O)O)NC(=O)[C@H](CO)NC(=O)[C@@H](NC(=O)[C@H](Cc1ccccc1)NC(=O)[C@@H](NC(=O)CNC(=O)[C@H](CCC(N)=O)NC(=O)C(C)(C)NC(=O)[C@@H](N)Cc1c[nH]cn1)[C@@H](C)O)[C@@H](C)O)C(=O)N[C@@H](CC(=O)O)C(=O)N[C@@H](CCCCNC(=O)CC[C@H](NC(=O)CC[C@H](NC(=O)COCCOCCNC(=O)CC[C@H](NC(=O)CC[C@H](NC(=O)CCCCCCCCCCCCCCCCC(=O)O)C(=O)O)C(=O)O)C(=O)O)C(=O)O)C(=O)N[C@@H](CCCNC(=N)N)C(=O)N[C@@H](CCCNC(=N)N)C(=O)N[C@@H](C)C(=O)N[C@@H](CCC(N)=O)C(=O)N[C@@H](CCC(=O)O)C(=O)N[C@@H](Cc1ccccc1)C(=O)N[C@H](C(=O)N[C@@H](CCC(N)=O)C(=O)N[C@@H](Cc1c[nH]c2ccccc12)C(=O)N[C@@H](CC(C)C)C(=O)N[C@@H](CC(C)C)C(=O)N[C@@H](CC(N)=O)C(=O)N[C@H](C(N)=O)[C@@H](C)O)C(C)C) | 0.0266 nM | 0.0588 nM | 5.9 nM | 1.4 nM
H[Aib]QGTFTSDLSRYLDARRAQDFVQWLLK([AEEA-AEEA-γGlu-γGlu-γGlu-C18 diacid])T-NH2 (N-terminus assumed; SMILES CC(C)C[C@H](NC(=O)[C@H](Cc1ccc(O)cc1)NC(=O)[C@H](CCCNC(=N)N)NC(=O)[C@H](CO)NC(=O)[C@H](CC(C)C)NC(=O)[C@H](CC(=O)O)NC(=O)[C@H](CO)NC(=O)[C@@H](NC(=O)[C@H](Cc1ccccc1)NC(=O)[C@@H](NC(=O)CNC(=O)[C@H](CCC(N)=O)NC(=O)C(C)(C)NC(=O)[C@@H](N)Cc1c[nH]cn1)[C@@H](C)O)[C@@H](C)O)C(=O)N[C@@H](CC(=O)O)C(=O)N[C@@H](C)C(=O)N[C@@H](CCCNC(=N)N)C(=O)N[C@@H](CCCNC(=N)N)C(=O)N[C@@H](C)C(=O)N[C@@H](CCC(N)=O)C(=O)N[C@@H](CC(=O)O)C(=O)N[C@@H](Cc1ccccc1)C(=O)N[C@H](C(=O)N[C@@H](CCC(N)=O)C(=O)N[C@@H](Cc1c[nH]c2ccccc12)C(=O)N[C@@H](CC(C)C)C(=O)N[C@@H](CC(C)C)C(=O)N[C@@H](CCCCNC(=O)COCCOCCNC(=O)COCCOCCNC(=O)CC[C@H](NC(=O)CC[C@H](NC(=O)CC[C@H](NC(=O)CCCCCCCCCCCCCCCCC(=O)O)C(=O)O)C(=O)O)C(=O)O)C(=O)N[C@H](C(N)=O)[C@@H](C)O)C(C)C) | 0.003 nM | 0.02 nM | 5.5 nM | 0.9 nM
H[Aib]QGTFTSDLSKYLDARRARDFVQWLLK([AEEA-AEEA-γGlu-γGlu-γGlu-C18 diacid])T-NH2 (N-terminus assumed; SMILES CC(C)C[C@H](NC(=O)[C@H](Cc1ccc(O)cc1)NC(=O)[C@H](CCCCN)NC(=O)[C@H](CO)NC(=O)[C@H](CC(C)C)NC(=O)[C@H](CC(=O)O)NC(=O)[C@H](CO)NC(=O)[C@@H](NC(=O)[C@H](Cc1ccccc1)NC(=O)[C@@H](NC(=O)CNC(=O)[C@H](CCC(N)=O)NC(=O)C(C)(C)NC(=O)[C@@H](N)Cc1c[nH]cn1)[C@@H](C)O)[C@@H](C)O)C(=O)N[C@@H](CC(=O)O)C(=O)N[C@@H](C)C(=O)N[C@@H](CCCNC(=N)N)C(=O)N[C@@H](CCCNC(=N)N)C(=O)N[C@@H](C)C(=O)N[C@@H](CCCNC(=N)N)C(=O)N[C@@H](CC(=O)O)C(=O)N[C@@H](Cc1ccccc1)C(=O)N[C@H](C(=O)N[C@@H](CCC(N)=O)C(=O)N[C@@H](Cc1c[nH]c2ccccc12)C(=O)N[C@@H](CC(C)C)C(=O)N[C@@H](CC(C)C)C(=O)N[C@@H](CCCCNC(=O)COCCOCCNC(=O)COCCOCCNC(=O)CC[C@H](NC(=O)CC[C@H](NC(=O)CC[C@H](NC(=O)CCCCCCCCCCCCCCCCC(=O)O)C(=O)O)C(=O)O)C(=O)O)C(=O)N[C@H](C(N)=O)[C@@H](C)O)C(C)C) | 0.0043 nM | 0.0113 nM | 2.6 nM | 0.2 nM
H[Aib]QGTFTSDVSKYLDARRAQDFVQWLLK([AEEA-AEEA-γGlu-γGlu-γGlu-C18 diacid])T-NH2 (N-terminus assumed; SMILES CC(C)C[C@H](NC(=O)[C@H](Cc1ccc(O)cc1)NC(=O)[C@H](CCCCN)NC(=O)[C@H](CO)NC(=O)[C@@H](NC(=O)[C@H](CC(=O)O)NC(=O)[C@H](CO)NC(=O)[C@@H](NC(=O)[C@H](Cc1ccccc1)NC(=O)[C@@H](NC(=O)CNC(=O)[C@H](CCC(N)=O)NC(=O)C(C)(C)NC(=O)[C@@H](N)Cc1c[nH]cn1)[C@@H](C)O)[C@@H](C)O)C(C)C)C(=O)N[C@@H](CC(=O)O)C(=O)N[C@@H](C)C(=O)N[C@@H](CCCNC(=N)N)C(=O)N[C@@H](CCCNC(=N)N)C(=O)N[C@@H](C)C(=O)N[C@@H](CCC(N)=O)C(=O)N[C@@H](CC(=O)O)C(=O)N[C@@H](Cc1ccccc1)C(=O)N[C@H](C(=O)N[C@@H](CCC(N)=O)C(=O)N[C@@H](Cc1c[nH]c2ccccc12)C(=O)N[C@@H](CC(C)C)C(=O)N[C@@H](CC(C)C)C(=O)N[C@@H](CCCCNC(=O)COCCOCCNC(=O)COCCOCCNC(=O)CC[C@H](NC(=O)CC[C@H](NC(=O)CC[C@H](NC(=O)CCCCCCCCCCCCCCCCC(=O)O)C(=O)O)C(=O)O)C(=O)O)C(=O)N[C@H](C(N)=O)[C@@H](C)O)C(C)C) | 0.0015 nM | 0.03 nM | 3.2 nM | 0.2 nM
H[Ac4c]QGTFTSDLSKYLESRRAQDFVQWLLK([AEEA-AEEA-γGlu-γGlu-γGlu-C18 diacid])T-NH2 (N-terminus assumed; SMILES CC(C)C[C@H](NC(=O)[C@H](Cc1ccc(O)cc1)NC(=O)[C@H](CCCCN)NC(=O)[C@H](CO)NC(=O)[C@H](CC(C)C)NC(=O)[C@H](CC(=O)O)NC(=O)[C@H](CO)NC(=O)[C@@H](NC(=O)[C@H](Cc1ccccc1)NC(=O)[C@@H](NC(=O)CNC(=O)[C@H](CCC(N)=O)NC(=O)C1(NC(=O)[C@@H](N)Cc2c[nH]cn2)CCC1)[C@@H](C)O)[C@@H](C)O)C(=O)N[C@@H](CCC(=O)O)C(=O)N[C@@H](CO)C(=O)N[C@@H](CCCNC(=N)N)C(=O)N[C@@H](CCCNC(=N)N)C(=O)N[C@@H](C)C(=O)N[C@@H](CCC(N)=O)C(=O)N[C@@H](CC(=O)O)C(=O)N[C@@H](Cc1ccccc1)C(=O)N[C@H](C(=O)N[C@@H](CCC(N)=O)C(=O)N[C@@H](Cc1c[nH]c2ccccc12)C(=O)N[C@@H](CC(C)C)C(=O)N[C@@H](CC(C)C)C(=O)N[C@@H](CCCCNC(=O)COCCOCCNC(=O)COCCOCCNC(=O)CC[C@H](NC(=O)CC[C@H](NC(=O)CC[C@H](NC(=O)CCCCCCCCCCCCCCCCC(=O)O)C(=O)O)C(=O)O)C(=O)O)C(=O)N[C@H](C(N)=O)[C@@H](C)O)C(C)C) | 0.007 nM | 0.024 nM | 7.7 nM | 0.8 nM
H[Aib]QGTFTSDLSKYLESRRARDFVQWLLK([AEEA-AEEA-γGlu-γGlu-γGlu-C18 diacid])T-NH2 (N-terminus assumed; SMILES CC(C)C[C@H](NC(=O)[C@H](Cc1ccc(O)cc1)NC(=O)[C@H](CCCCN)NC(=O)[C@H](CO)NC(=O)[C@H](CC(C)C)NC(=O)[C@H](CC(=O)O)NC(=O)[C@H](CO)NC(=O)[C@@H](NC(=O)[C@H](Cc1ccccc1)NC(=O)[C@@H](NC(=O)CNC(=O)[C@H](CCC(N)=O)NC(=O)C(C)(C)NC(=O)[C@@H](N)Cc1c[nH]cn1)[C@@H](C)O)[C@@H](C)O)C(=O)N[C@@H](CCC(=O)O)C(=O)N[C@@H](CO)C(=O)N[C@@H](CCCNC(=N)N)C(=O)N[C@@H](CCCNC(=N)N)C(=O)N[C@@H](C)C(=O)N[C@@H](CCCNC(=N)N)C(=O)N[C@@H](CC(=O)O)C(=O)N[C@@H](Cc1ccccc1)C(=O)N[C@H](C(=O)N[C@@H](CCC(N)=O)C(=O)N[C@@H](Cc1c[nH]c2ccccc12)C(=O)N[C@@H](CC(C)C)C(=O)N[C@@H](CC(C)C)C(=O)N[C@@H](CCCCNC(=O)COCCOCCNC(=O)COCCOCCNC(=O)CC[C@H](NC(=O)CC[C@H](NC(=O)CC[C@H](NC(=O)CCCCCCCCCCCCCCCCC(=O)O)C(=O)O)C(=O)O)C(=O)O)C(=O)N[C@H](C(N)=O)[C@@H](C)O)C(C)C) | 0.003 nM | 0.129 nM | 19 nM | 0.2 nM
